Experiment: yeast display, Sf9 membrane polyspecificity reagent, FACS + sequencing; frameworks hold sequencing errors
Summary of the method: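 Genes from sorted yeast were amplified by colony PCR, read by MiSeq 2 × 250 sequencing and filtered on CDR length. These cells carried a synthetic nanobody library in Saccharomyces cerevisiae BJ5465 and were sorted by FACS into low and high (top ~1%) gates on anti-HA and streptavidin fluorescence. Polyreactivity is labelled according to the gate of origin.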

Which “polyreactivity (PSR sort gate)” value does the source give for “QVQLVESGGGLVQAGGSLRLSCAASGRTFLGYAMGWYRQAPGKERELVAAISSSGGSTYYADSVKGRVTISRDNAKNTVYFQMNCLKPEDTAVYYCAKRKRATGASGHGFGYWGQGTQVTVSS” here?
Its value is “high polyreactivity”.

For “QVQLVESGGGLVQAGGSLRLSCAASGRTFLINAMGWYRQAPGKEREMVAAITQSGGSTYYADSVKGRFTISRDNAKYTVYLQMNSLKPEDTAVYNCNATPDSVRWDYALSVVRYEYWGQGTQVTVSS”, which “polyreactivity (PSR sort gate)” value is on record?
Its value is “low polyreactivity”.

With “QVQLVESGGGLVQAGGSLRLSCAASGRTFLINSMGWYRQAPGKERELVAGITRNGGTTYYADSVKGRFTISRDNAKNTVYLQMNSLKPEDTAVYYCAKRYPSWFNYWGQGTQVTVSS” as the sequence, how does the “polyreactivity (PSR sort gate)” value read?
The value was “high polyreactivity”.

For “QVQLVESGGGLVQAGGSLRLSCAASGRTFLIYAMGWYRQAPGKERELVAAITNGVDSTYYADSVKGRFTISRDNAKNTVYLQMNSLKPEDTAVYYCNADTVVEWYSPSREYDYWGQGTQVTVSS”, which “polyreactivity (PSR sort gate)” value is on record?
The value was “low polyreactivity”.

With “QVQLVESGGGLVQAGGSLRLSCAASGRTFLIYAMGWYRQAPGKERELVAGITRGSTTYADSVKGRFTISRDNAKNTVYLQMNSLKPEDTAVYYCAARNYSVATYGEYDDWGQGTQVTVSS” as the sequence, how does the “polyreactivity (PSR sort gate)” value read?
The value was “high polyreactivity”.

For “QVQLVESGGGLVQAGGSLRLSCAASGRTFLIYAMGWYRQAPGKETEFVAAIRGRGGSTYYADSVKGRFTISRDNAKNTVYFQMNCLKPVDTAVYYCAATFPGRSYRIRGYGYDYWGQGTQVTVSS”, which “polyreactivity (PSR sort gate)” value is on record?
Its value is “high polyreactivity”.

Which “polyreactivity (PSR sort gate)” value does the source give for “QVQLVESGGGLVQAGGSLRLSCAASGRTFLLNAMGWYRQAPGKERELVAAISRGGSTYYADSVKGRFTISRDNAKNTVYLQMNSLKPEDTAVYYCAARFWISHTHWDAGDYWGQGTQVTVSS” here?
The value was “low polyreactivity”.

With “QVQLVESGGGLVQAGGSLRLSCAASGRTFLLYAMGWYRQAPGKERELVARITGRGGRTYYADSVKGRFTISRDNAKNTVYLQMNSLKPEDTAVYYCNKRYPLGTEYYYWGQGTQVTVSS” as the sequence, how does the “polyreactivity (PSR sort gate)” value read?
Its value is “high polyreactivity”.

For “QVQLVESGGGLVQAGGSLRLSCAASGRTFLRYAMGWSRQAPGTETELVAAISSDGSTNYADSVKGRFTISRDNAKNTVYLQMNSLKPEDTAVYYCDADPQKWYTGYDYWGQGTQVTVSS”, which “polyreactivity (PSR sort gate)” value is on record?
The value was “low polyreactivity”.

Which “polyreactivity (PSR sort gate)” value does the source give for “QVQLVESGGGLVQAGGSLRLSCAASGRTFLRYAMGWYREAPGKERELVAAITYGGRTNFADSVKGRFTISRDNAKNTVYFQMNSLKPEDTAVYYCAADRTYYYGLRVDYWGQGTQVTVSS” here?
The value was “high polyreactivity”.

For “QVQLVESGGGLVQAGGSLRLSCAASGRTFLRYAMGWYRQAPGKERELVAAISWSGGRTYYADSVKGRFTISRDNAKNTVYLQMNSLKPEDTAVYYCNKVVLYGAHYYYWGQGTQVTVSS”, which “polyreactivity (PSR sort gate)” value is on record?
Its value is “high polyreactivity”.

With “QVQLVESGGGLVQAGGSLRLSCAASGRTFLTYVMGRYRQAPGKERELVAAITRGGRTNYADSVKGRFTISRDNAKNTVYLQMNSLKPEDTAVYYCARDDTPRYDYWGQGTQVTVSS” as the sequence, how does the “polyreactivity (PSR sort gate)” value read?
The value was “low polyreactivity”.

For “QVQLVESGGGLVQAGGSLRLSCAASGRTFLVNAMGWYRQAPGKERELVAAISSVGSTNYADSVKGRFTISRDNAKNTVYLQMNSLKPEVTSVYYCAKDAEYDCGQGTQVTVSS”, which “polyreactivity (PSR sort gate)” value is on record?
Its value is “low polyreactivity”.

Which “polyreactivity (PSR sort gate)” value does the source give for “QVQLVESGGGLVQAGGSLRLSCAASGRTFLWNAMGWYRQAPGKERELVAAITSGGRTTYADSVKGRFTISRDNAKNTVYLQMNSLKPEDTAVYYCAAVSANQDFDYWGQGTQVTVSS” here?
The value was “high polyreactivity”.

For “QVQLVESGGGLVQAGGSLRLSCAASGRTFLYNAMGWYRQAPGKERELVAAISWSGGSTYYADSVKGRFTISRDNAKNTVYLQMNSLKPEDTAVYYCAATGRRSGFYYWGQGTQVTVSS”, which “polyreactivity (PSR sort gate)” value is on record?
The value was “high polyreactivity”.

With “QVQLVESGGGLVQAGGSLRLSCAASGRTFLYVMGWNIQAPGKERELVAASSRGGSTSYADSVKGRFTISRDNAKNTVYLQMNSMKPEVTAVYYCAATNYWRDGYWGQGTQVTVSS” as the sequence, how does the “polyreactivity (PSR sort gate)” value read?
Its value is “high polyreactivity”.

Which “polyreactivity (PSR sort gate)” value does the source give for “QVQLVESGGGLVQAGGSLRLSCAASGRTFLYYAMGWYRQAPGKERELVAAIDWSDDSTYYADSVKGRFTISRDNAKNTVYLQMNSLKPEDTAVYYCATDGLYLSWQYSWEELYYWGQGTQVTVSS” here?
Its value is “high polyreactivity”.

For “QVQLVESGGGLVQAGGSLRLSCAASGRTFLYYAMGWYRQAPGKERELVAAIRRGSSTYYADSVKGRFTISRDNAKNTVYLQMNSLKPEDTAVYYCAARGRYRIGPGRYGKRYDYWGQGTQVTVSS”, which “polyreactivity (PSR sort gate)” value is on record?
The value was “high polyreactivity”.

For “QVQLVESGGGLVQAGGSLRLSCAASGRTFLYYAMGWYRQEPGKERELVAAITGRGGSTYNADSVKGLFTISRDNAQNTVYLKMNILKPEDTAVYYCAARDNWIRRDGYWGQGTQVTVSS”, which “polyreactivity (PSR sort gate)” value is on record?
The value was “high polyreactivity”.

With “QVQLVESGGGLVQAGGSLRLSCAASGRTFLYYAMGWYRQSPGKERELVAAINRSGRTYYADSVKGRFTISRDNAKNTVYLQMNSLKPEDTAVYYCAADTRYPYRAYDYWGQGTQVTVSS” as the sequence, how does the “polyreactivity (PSR sort gate)” value read?
The value was “high polyreactivity”.

With “QVQLVESGGGLVQAGGSLRLSCAASGRTFLYYTMGWYRQAPGKERELVAAITSGTSTNYADSVKGRFTIARDNAKNTVYLQMNSQKPEDTAVYYCNKRAARSLNGYPLYGYYSWGQGTQVTVSS” as the sequence, how does the “polyreactivity (PSR sort gate)” value read?
Its value is “low polyreactivity”.

Which “polyreactivity (PSR sort gate)” value does the source give for “QVQLVESGGGLVQAGGSLRLSCAASGRTFNAYAMGWYRQAPGKERELVAAISSGGSTYYADSVKGRFTISRDNAKYTVYLQMNSLKPEDTAVYYCNKVYGWRQFDYWGQGTQVTVSS” here?
Its value is “high polyreactivity”.

With “QVQLVESGGGLVQAGGSLRLSCAASGRTFNGYAMGWYRQAPGKERELVASITLRGGSTYYADSVKGRFTISRDNAKNTVYLQMNSLKPEDTAVYYCAVGKFVRYPGRWRYRYDYWGQGTQVTVSS” as the sequence, how does the “polyreactivity (PSR sort gate)” value read?
The value was “high polyreactivity”.

Which “polyreactivity (PSR sort gate)” value does the source give for “QVQLVESGGGLVQAGGSLRLSCAASGRTFNINALGWYRQAPGKERELVAAITWTGGGNTYYADSVKGRFTISRDNAKNTVYLQMNSLKPEDTAVYYCNADGRNYFYEGFWEGNYWGQGTQVTVSS” here?
Its value is “low polyreactivity”.

For “QVQLVESGGGLVQAGGSLRLSCAASGRTFNIYAMGWYRQAPGKERELVAAISSGGSTYYADSVKGRFTISRDNAKNTVYLQMNSLKPEDTAVYYCAAVEFELRGDYWGQGTQVTVSS”, which “polyreactivity (PSR sort gate)” value is on record?
The value was “low polyreactivity”.

For “QVQLVESGGGLVQAGGSLRLSCAASGRTFNKYAMGWYRQAPGKERELVAAITGSGGSTYYADSVKGRFTISRDNAKNTVYLEMNSLKPEDTAVYYCAAYAYGVWHSQDGGNYWGQGTQVTVSS”, which “polyreactivity (PSR sort gate)” value is on record?
Its value is “low polyreactivity”.

Which “polyreactivity (PSR sort gate)” value does the source give for “QVQLVESGGGLVQAGGSLRLSCAASGRTFNRNAMGWYRQAPGKERELVAAISWSGGRTYYADSVKGRFTISRDTAKNTVYLQMNSLKPEDTAVYYCAAPGKKYWGQGTQVTVSS” here?
The value was “high polyreactivity”.

Which “polyreactivity (PSR sort gate)” value does the source give for “QVQLVESGGGLVQAGGSLRLSCAASGRTFNRYAMGWYRQAPGKERELVAAINSVGSTYYADSVKGRFTISRDNAKNTVYLQMNSLKPEDTAVYYCNAVQGSRFGYWGQGTQVTVSS” here?
The value was “high polyreactivity”.

For “QVQLVESGGGLVQAGGSLRLSCAASGRTFNSNAMGWYRQAPGKERELVAAITRSGGSTYYADSVKGRFTISRDNAKNTVYLQMNSLKPEDTAVYYCNKTRWTQRTSFDYWGQGTQVTVSS”, which “polyreactivity (PSR sort gate)” value is on record?
Its value is “low polyreactivity”.

With “QVQLVESGGGLVQAGGSLRLSCAASGRTFNWYAMGWYRQAPGKERELVAAIRVNGGITYYADSVKGRFTISRDNAKNTVYLQMISLKPEDTAVYYCAVYSRQGLGYWGQGTQVTVSS” as the sequence, how does the “polyreactivity (PSR sort gate)” value read?
Its value is “high polyreactivity”.

For “QVQLVESGGGLVQAGGSLRLSCAASGRTFNYNAMGWYRQAPGKERELVAAINYNGGSTYYADSVKGRFTISRDNAKNTVYVQMNSLKPEDTAVYYCAADYNEYDWGQGTQVTVSS”, which “polyreactivity (PSR sort gate)” value is on record?
Its value is “low polyreactivity”.

With “QVQLVESGGGLVQAGGSLRLSCAASGRTFNYYAMGWYRQAPGKERELVAAISWSGTPTYYADSVKGRFTISRDHAKNTVYLQMNSLKPEDTAVYYCAAYLVSYPRGNYIRYDYWGQGTQVTVSS” as the sequence, how does the “polyreactivity (PSR sort gate)” value read?
Its value is “low polyreactivity”.

For “QVQLVESGGGLVQAGGSLRLSCAASGRTFNYYAMGWYRQAPGKERESVAAISWRGGSTYYADSVKGRFTISRDNAKNTVYLQMNSLKPEDTAVYYCNKYFSWRPYSYYYWGQGTQVTVSS”, which “polyreactivity (PSR sort gate)” value is on record?
The value was “high polyreactivity”.

For “QVQLVESGGGLVQAGGSLRLSCAASGRTFNYYPMGWYRQAPGKERELVAAISRSGTPTYYADSVKGRFTISRDNAKNTVYLQMNSLKPEDTAVYYCAAYLVSYPRGNYIRYDYWGQGTQVTVSS”, which “polyreactivity (PSR sort gate)” value is on record?
The value was “low polyreactivity”.

With “QVQLVESGGGLVQAGGSLRLSCAASGRTFNYYTMGWNRQAPGKEREFVAAITISGARTYYADSVKGRFTISRDNAKNTVYLQMNSLKPEDTAVYYCAARRRYRSRVTPVGYNYWGQGTQVTVSS” as the sequence, how does the “polyreactivity (PSR sort gate)” value read?
The value was “high polyreactivity”.

Which “polyreactivity (PSR sort gate)” value does the source give for “QVQLVESGGGLVQAGGSLRLSCAASGRTFPENAKGWYTQAPGKEREFVAVISSGGGSTTYADSVKGRFTISRDNAKNTVYLQMNSLKPEDTAVYYCATEYYFHGYWITYSWGQGTQVTVSS” here?
The value was “low polyreactivity”.

For “QVQLVESGGGLVQAGGSLRLSCAASGRTFPENTMGWYRQAPAKERELVAAISSTTSTNYADSVKGRFTISRDNAKNTVYLQMNSLKPEDTAVYFWADDFWEYDGPWYANDYESWGLGTQVTVSS”, which “polyreactivity (PSR sort gate)” value is on record?
The value was “low polyreactivity”.

For “QVQLVESGGGLVQAGGSLRLSCAASGRTFPFYAMGWYRPAPGTERELVASIRGGGGTNYADSVKGRFTISRDNAKNTVYLQMNSLKPEDTAVYYCAARGYGYRGYYYWGQGTQVTVSS”, which “polyreactivity (PSR sort gate)” value is on record?
The value was “high polyreactivity”.

For “QVQLVESGGGLVQAGGSLRLSCAASGRTFPGNAMGWYRQAPGKERELVAAISYSGGRTYYSDSVKGRFTISRDNAKNTVYLQMNRLKPEDTAVYYCAKSIVQPSVAAYYYWGQGTQVTVSS”, which “polyreactivity (PSR sort gate)” value is on record?
Its value is “high polyreactivity”.

For “QVQLVESGGGLVQAGGSLRLSCAASGRTFPGNAMGWYRQAPGKERELVAAITRVGSTYYADSVKGRFTISRDNAKNTVYLQMNSLKPEDTAVYYCAADRLEGYYEDDATGFDYWRQGTQVTVSS”, which “polyreactivity (PSR sort gate)” value is on record?
The value was “low polyreactivity”.

Which “polyreactivity (PSR sort gate)” value does the source give for “QVQLVESGGGLVQAGGSLRLSCAASGRTFPGYGMGWYRQAPGKERELVAVITSNGGITYYADSVKGRFTISRDNAKNTVYLQMNSLKPEDTAVYYCAAYEIYYEFDSWGQGTQVTVSS” here?
The value was “low polyreactivity”.

From the nanobody polyreactivity screen of Harvey et al. (2022)
